According to patent publication US20230183352A1 (published 2023):
Positions count from the first letter of the chain named. Blank lines part the entries; values can stand above or below the binder they belong to.

Legend:
[1] = molecular target: T1, Claudin 18.2 (CLDN18.2), expressed on CHOS-CLDN 18.2 / HEK293-CLDN 18.2 / HCC827-CLDN 18.2 cells (human, UniProt P56856-2 1-261); assay: FACS, CHOS-CLDN18.2 cells, 20 µg/ml
T1 construct: whole, on cells; The species is not repeated for the CHOS-CLDN 18.2 cells; also called claudin-18A2

[2] = molecular target: T1, Claudin 18.2 (CLDN18.2), expressed on …; assay: FACS, CHOS-CLDN18.2 cells, 1.250 µg/ml
[3] = molecular target: T1, Claudin 18.2 (CLDN18.2), expressed on …; assay: FACS, CHOS-CLDN18.2 cells, 5 µg/ml
[4] = molecular target: T1, Claudin 18.2 (CLDN18.2), expressed on …; assay: FACS, MFI on CHOS-CLDN18.2 over MFI on CHOS-CLDN18.1, 10 µg/ml
[5] = molecular target: T1, Claudin 18.2 (CLDN18.2), expressed on …; assay: FACS, CHOS-CLDN18.2 cells, 0.313 µg/ml
[6] = molecular target: T1, Claudin 18.2 (CLDN18.2), expressed on …; assay: FACS, CHOS-CLDN18.2 cells, 0.005 µg/ml
[7] = molecular target: T1, Claudin 18.2 (CLDN18.2), expressed on …; assay: FACS, CHOS-CLDN18.2 cells, 0.020 µg/ml
[8] = molecular target: T1, Claudin 18.2 (CLDN18.2), expressed on …; assay: FACS, CHOS-CLDN18.2 cells, 10 µg/ml
[9] = molecular target: T1, Claudin 18.2 (CLDN18.2), expressed on …; assay: FACS, CHOS-CLDN18.2 cells, 0.078 µg/ml
[10] = molecular target: T1, Claudin 18.2 (CLDN18.2), expressed on …; assay: FACS, CHOS-CLDN18.2 cells
[11] = molecular target: T1, Claudin 18.2 (CLDN18.2), expressed on …; assay: FACS, CHOS-CLDN18.2 cells, 0 µg/ml (background)
[12] = molecular target: T1, Claudin 18.2 (CLDN18.2), expressed on …; assay: cell-based or functional assay
[13] = molecular target: T2, PD-L1 Protein, Cynomolgus, Recombinant (His Tag) (cynomolgus, UniProt G7PSE7 19-239); assay: SPR, Biacore T200, antibody captured
T2 construct: Bought protein; also called QPP10.1; cynoPD-L1; not shown: His tag
T2 sequence (G7PSE7 entry or part of it): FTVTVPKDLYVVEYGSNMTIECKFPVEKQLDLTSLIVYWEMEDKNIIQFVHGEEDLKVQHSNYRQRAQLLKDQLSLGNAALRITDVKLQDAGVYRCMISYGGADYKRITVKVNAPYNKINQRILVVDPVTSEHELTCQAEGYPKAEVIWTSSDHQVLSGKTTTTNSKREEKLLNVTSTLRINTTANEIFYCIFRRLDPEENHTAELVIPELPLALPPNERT

[14] = molecular target: T3, PD-L1 Protein, Human, Recombinant (His Tag) (human, UniProt Q9NZQ7 19-239); assay: SPR Biacore T200, antibody captured, PD-L1 His as analyte, 1:1 binding
T3 construct: Bought protein; also called QPP09.1; SinoBiologic 10084-H08H
T3 sequence (Q9NZQ7 19-239 limits assumed): as the sequence (G7PSE7 entry or part of it) above, with T33A, S34A, N62S, Q68R, R82Q, L173F, A185T, I192T, L215H counted along it

[15] = molecular target: T4, PD-L1 Protein, Cynomolgus, Recombinant (His Tag) (cynomolgus); assay: as above
T4 construct: Bought protein; also called QPP10.1; SinoBiologic 90251-C08H

[16] = molecular target: T5, Biotin QP004.3 (biotin-PDL1-FC) (human, UniProt Q9NZQ7 19-238, limits assumed, biotinylated (sites not given)); assay: PD-L1/PD-1 blocking ELISA, PD1-FC coated; row labelled EC50; competitor PD1-FC
T5 sequence (Q9NZQ7 19-238 limits assumed): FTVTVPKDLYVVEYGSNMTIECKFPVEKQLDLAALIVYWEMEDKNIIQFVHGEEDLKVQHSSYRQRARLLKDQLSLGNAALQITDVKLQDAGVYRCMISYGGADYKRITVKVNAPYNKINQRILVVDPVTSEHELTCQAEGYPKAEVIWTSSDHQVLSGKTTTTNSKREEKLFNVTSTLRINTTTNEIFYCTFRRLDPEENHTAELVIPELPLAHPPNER

[17] = molecular target: T5, Biotin QP004.3 (biotin-PDL1-FC); assay: PD-L1 binding ELISA, antibody coated, biotin-PDL1-FC titrated

FACS reading [1]: 88700 | FACS reading [2]: 114000 | FACS reading [3]: 148000 | CLDN18.2/CLDN18.1 (MFI ratio) [4]: 423 | FACS reading [5]: 54200 | FACS reading [6]: 2840 | FACS reading [7]: 8000 | MFI [8]: 450000 | FACS reading [9]: 15700 | EC50 [10]: 0.354 µg/mL | max [10]: 148000 | FACS reading [11]: 729
B1: QP190191 (antibody, human IgG1, V domains shown)
VH: EVKLVESGGGLVKPGGSLKLSCAASGFTFSNYAMSWVRQTPEKRLEWVASIISGGRTYYLDSEKGRFTISRDNARNNLYLQMSSLRSEDTAMYYCTRIYYGNSFDYWGQGTTLTVSS
VL: DIVMTQSPSSQTVTAGEKVTMSCKSSQSLLNSGNQKNYLTWYQQKPGQPPKLLIYWASTRESGVPDRFTGSGSGTDFTLTISNMQAEDLAVYYCQNDYSYPFTFGSGTKLEIK
notes: Chimeric; also called 36A2; mouse-derived chimeric antibody QP190191

FACS reading [1]: 134000 | FACS reading [2]: 145000 | FACS reading [3]: 197000 | CLDN18.2/CLDN18.1 (MFI ratio) [4]: 497 | FACS reading [5]: 72000 | FACS reading [6]: 4130 | FACS reading [7]: 10200 | MFI [8]: 512000 | FACS reading [9]: 18000 | EC50 [10]: 0.38 µg/mL | max [10]: 197000 | FACS reading [11]: 732
B2: QP14371435 (antibody, human IgG1, kappa, V domains shown)
VH: EVQLVESGGGLVKPGGSLRLSCAASGFTFSNYAMSWVRQAPGKGLEWVASIISGGRTYYLDSEKGRFTISRDNAKNSLYLQMNSLRAEDTAVYYCTRIYYGNSFDYWGQGTLVTVSS
VL: DIVMTQSPDSLAVSLGERATISCKSSQSLLNSGNQKNYLTWYQQKPGQPPKLLIYWASTRESGVPDRFTGSGSGTDFTLTISSLQAEDVAVYYCQNDYSYPFTFGQGTKLEIKR
notes: Humanized from QP190191

FACS reading [1]: 115000 | FACS reading [2]: 133000 | FACS reading [3]: 174000 | CLDN18.2/CLDN18.1 (MFI ratio) [4]: 448 | FACS reading [5]: 65900 | FACS reading [6]: 3730 | FACS reading [7]: 10800 | MFI [8]: 433000 | FACS reading [9]: 17700 | EC50 [10]: 0.36 µg/mL | max [10]: 174000 | FACS reading [11]: 754
B3: QP14371433 (antibody, human IgG1, kappa, V domains shown)
VH: B2 VH
VL: B2 VL with S22N, T69S
notes: Humanized from QP190191; also called QP14331437
EC50 of killing, ADCC (PBMC, HEK293-CLDN18.2 cells) [12]: 0.0162 µg/mL | Killing percentage, ADCC (PBMC, HEK293-CLDN18.2 cells), 0 µg/ml [12]: 9.02% | Killing percentage, ADCC (PBMC, HEK293-CLDN18.2 cells), 0.0001024 µg/ml [12]: 8.31% | Killing percentage, ADCC (PBMC, HEK293-CLDN18.2 cells), 0.000512 µg/ml [12]: 10.5% | Killing percentage, ADCC (PBMC, HEK293-CLDN18.2 cells), 0.00256 µg/ml [12]: 13.3% | Killing percentage, ADCC (PBMC, HEK293-CLDN18.2 cells), 0.0128 µg/ml [12]: 31.3% | Killing percentage, ADCC (PBMC, HEK293-CLDN18.2 cells), 0.064 µg/ml [12]: 41.5% | Killing percentage, ADCC (PBMC, HEK293-CLDN18.2 cells), 0.32 µg/ml [12]: 49.6% | Killing percentage, ADCC (PBMC, HEK293-CLDN18.2 cells), 1.6 µg/ml [12]: 56.4% | Killing percentage, ADCC (PBMC, HEK293-CLDN18.2 cells), 8 µg/ml [12]: 53.8% | Killing percentage, ADCC (PBMC, HEK293-CLDN18.2 cells), 40 µg/ml [12]: 52.3%

FACS reading [1]: 183000 | FACS reading [2]: 141000 | FACS reading [3]: 182000 | CLDN18.2/CLDN18.1 (MFI ratio) [4]: 550 | FACS reading [5]: 75900 | FACS reading [6]: 3390 | FACS reading [7]: 8520 | MFI [8]: 504000 | FACS reading [9]: 23600 | EC50 [10]: 0.466 µg/mL | max [10]: 182000 | FACS reading [11]: 713
B4: QP14361435 (antibody, human IgG1, kappa, V domains shown)
VH: B2 VH with A49S
VL: B2 VL
notes: Humanized from QP190191

binding result [13]: binds
B5: QP322 (Fc fusion)
chain: EVQLLESGGGLVQPGGSLRLSCAASGFTYGTYAMSWFRQAPGKGREGVACIDIYGRASYTDPVKGRFTISQDNSKNTLYLQMNSLKAEDTAVYYCAARDFGYCTASWVHEGFSRYWGQGTLVTVSS
notes: Humanized from QP1162; also called 1162-V3; humanized nanobody QP322; not shown: human IgG1-FC constant region fused to the C terminal of the VHH

Kd [14]: 2.37 nM | koff [14]: 0.00311 s⁻¹ | kon [14]: 1.31e+06 M⁻¹ s⁻¹ | Kd [15]: 5.39 nM | koff [15]: 0.00354 s⁻¹ | kon [15]: 657000 M⁻¹ s⁻¹ | IC50 [16]: 5.12 nM | EC50 [17]: 0.00753 µg/mL
B6: QP322 (Fc fusion)
chain: B5 chain
notes: Humanization design of QP1162; VHH at the N-terminal of FC; also called 1162-V3; QD322; not shown: human IgG1-FC constant region fused to the C terminal of the VHH

binding result [13]: binds
B7: QP325 (Fc fusion)
chain: B5 chain with R45L, A57T, K86R
notes: Humanized from QP1166; also called 1166-V3; humanized antibody QP325; not shown: human IgG1-FC constant region fused to the C terminal of the VHH

binding result [13]: binds
B8: QP1162 (VHH)
VHH: B5 chain with E1Q, L5V, L11S, P14S, G44E, S74A, A87P, V92M, L121Q
notes: also called nanobody QP1162; camel nanobody QP1162
